According to the RNAGym collection of RNA variant scans (doi:10.1093/molbev/msab373):

B1: Azoarcus group I ribozyme (parent)
chain: GUGCCUUGCGCCGGGAAACCACGCAAGGGAUGGUGUCAAAUUCGGCGAAACCUAAGCGCCCGCCCGGGCGUAUGGCAACGCCGAGCCAAGCUUCGGCGCCUGCGCCGAUGAAGGUGUAGAGACUAGACGGCACCCACCUAAGGCAAACGCUAUGGUGAAGGCAUAGUCCAGGGAGUGGCGAAAGUCACACAAACCGG

Variants of: B1
Assay: reverse-splicing fitness (ratio to wild type); higher = more active; in vitro selection; Mg2+ level not given
Outline: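 An in vitro group I ribozyme library with randomized positions was T7-transcribed and gel-purified. In triplicate, 10 pmol RNA in EPPS pH 7.5 was reacted with 50 pmoles of a 30-nt RNA substrate for 1 h at 37 °C across several added MgCl2 levels (1–48 mM), then stopped with EDTA. Products were reverse transcribed from a substrate-complementary primer, PCR-amplified and sequenced (HiSeq 4000). Fitness is a variant's read proportion after selection over that before, normalised to wild type.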

| Variant | reverse-splicing fitness |
| --- | --- |
| C82A A120C A145G C150G C169U U176G | 0.00779 |
| C82A A120C A145G C150G C169U U176A | 0.0135 |
| C82A A120C A145G C150G C169U U176C | 0.015 |
| C82A A120C A145U C150G C169G U176G | 0.00467 |
| C82A A120C A145U C150G C169G U176C | 0.00545 |
| C82A A120C A145U C150G C169G U176A | 0.00819 |
| C82A A120C A145U U176C | 0.0639 |
| C82A A120C A145U U176A | 0.0383 |
| C82A A120C A145U U176G | 0.00885 |
| C82A A120C A145U C150G U176G | 0.00376 |
| C82A A120C A145U C150G U176C | 0.0141 |
| C82A A120C A145U C150G U176A | 0.00792 |
| C82A A120C A145G C150U C169G U176C | 0.0202 |
| C82A A120C A145G C150U C169G U176G | 0.00573 |
| C82A A120C A145G C150U C169G U176A | 0.0144 |
| C82A A120C A145U C169G U176G | 0.00482 |
| C82A A120C A145U C169G U176C | 0.0191 |
| C82A A120C A145U C169G U176A | 0.0152 |
| C82A A120C C150A C169U U176C | 0.0137 |
| C82A A120C C150A C169U U176A | 0.0176 |
| C82A A120C A145U C150A U176C | 0.0233 |

| Variant | reverse-splicing fitness |
| --- | --- |
| C82A A120C A145U C150A U176G | 0.00574 |
| C82A A120C A145U C150A U176A | 0.0143 |
| C82A A120C A145U C169A U176A | 0.0129 |
| C82A A120C A145U C169A U176G | 0.00493 |
| C82A A120C A145U C169A U176C | 0.0124 |
| C82A A120C C150A C169A | 0.0115 |
| C82A A120C C150A C169U | 0.0147 |
| C82A A120C C150A C169G | 0.0106 |
| C82A A120C A145G C169A | 0.00985 |
| C82A A120C A145G C169G | 0.0102 |
| C82A A120C A145G C169U | 0.0214 |
| C82A A120C A145C C150U C169G | 0.00856 |
| C82A A120C A145C C150U C169U | 0.0118 |
| C82A A120C A145U C169U U176C | 0.0114 |
| C82A A120C A145U C169U U176G | 0.0041 |
| C82A A120C A145U C169U U176A | 0.0169 |
| C82A A120C A145C C169U U176A | 0.0135 |
| C82A A120C A145C C169U U176C | 0.0127 |
| C82A A120C A145C C169U U176G | 0.00354 |
| C82A A120C A145G C150U C169A U176A | 0.0169 |
| C82A A120C A145G C150U C169A U176G | 0.00774 |

| Variant | reverse-splicing fitness |
| --- | --- |
| C82A A120C A145G C150U C169A U176C | 0.0184 |
| C82A A120C A145U C150G C169U U176G | 0.00519 |
| C82A A120C A145U C150G C169U U176C | 0.00999 |
| C82A A120C A145U C150G C169U U176A | 0.00709 |
| C82A A120C A145U C169A | 0.00925 |
| C82A A120C A145U C169U | 0.0199 |
| C82A A120C A145U C169G | 0.00932 |
| C82A A120C A145U C150A C169G U176C | 0.0221 |
| C82A A120C A145U C150A C169G U176G | 0.00546 |
| C82A A120C A145U C150A C169G U176A | 0.0165 |
| C82A A120C A145G C150G C169G U176A | 0.013 |
| C82A A120C A145G C150G C169G U176G | 0.00719 |
| C82A A120C A145G C150G C169G U176C | 0.0127 |
| C82A A120C A145C U176G | 0.00935 |
| C82A A120C A145C U176A | 0.0359 |
| C82A A120C A145C U176C | 0.0514 |
| C82A A120C A145C C150U C169G U176C | 0.0186 |
| C82A A120C A145C C150U C169G U176G | 0.00542 |
| C82A A120C A145C C150U C169G U176A | 0.0287 |
| C82A A120C A145U C150G C169U | 0.0114 |
| C82A A120C A145U C150G C169A | 0.0101 |

| Variant | reverse-splicing fitness |
| --- | --- |
| C82A A120C A145U C150G C169G | 0.00692 |
| C82A A120C A145G C169G U176C | 0.0316 |
| C82A A120C A145G C169G U176A | 0.0237 |
| C82A A120C A145G C169G U176G | 0.0041 |
| C82A A120C A145G C150A C169U U176A | 0.0177 |
| C82A A120C A145G C150A C169U U176C | 0.0163 |
| C82A A120C A145G C150A C169U U176G | 0.00765 |
| C82A A120C A145C C169A U176C | 0.00953 |
| C82A A120C A145C C169A U176A | 0.015 |
| C82A A120C A145C C169A U176G | 0.00403 |
| C82A A120C A145U C150G C169A U176C | 0.0131 |
| C82A A120C A145U C150G C169A U176A | 0.0116 |
| C82A A120C A145U C150G C169A U176G | 0.00455 |
| C82A A120C A145G C150U C169U U176A | 0.0157 |
| C82A A120C A145G C150U C169U U176G | 0.00621 |
| C82A A120C A145G C150U C169U U176C | 0.0136 |
| C82A A120C A145U C150A C169U U176A | 0.0151 |
| C82A A120C A145U C150A C169U U176G | 0.00487 |
| C82A A120C A145U C150A C169U U176C | 0.0126 |
| C82A A120C A145G C150U C169G | 0.00896 |
